Results taken from US20070027089A1 (POSCO, published 2007).
Where no end group is shown, it is not given here. The star is where a group is joined. Biotin = O=C1N[C@H]2[C@H](CS[C@H]2CCCCC(=O)*)N1; Dnp = O=[N+]([O-])c1ccc(*)c([N+](=O)[O-])c1; Mca = COc1ccc2c(CC(=O)*)cc(=O)oc2c1

Legend:
[1] = target: T1, biotin-labeled Substrate M; assay: plate assay: complementary peptide immobilised, biotinylated substrate, streptavidin-HRP
T1 construct: also called bio-Sub M; N-terminally biotinylated Substrate M
T1 peptide: Biotin-SEVNLDAEFR

[2] = target: T2, recombinant human β-secretase (rhBACE1) (human, UniProt P56817 22-457, limits assumed); assay: ELISA, c-Sub M immobilised
T2 construct: Bought

[3] = target: T3, f-Sub M (7-methoxycoumarin-4-acetyl-SEVNLDAEFRK(Dnp)-RR-NH2); assay: cell-based or functional assay
T3 peptide: Mca-SEVNLDAEFRK(Dnp)RR-NH2

[4] = target: T4, biotin-labeled Substrate W; assay: plate assay: HC peptide chemically coupled to plate, bio-Sub W, Str-HRP (FIG. 27)
T4 construct: also called bio-Sub W; N-terminally biotinylated Substrate W
T4 peptide: Biotin-SEVKMDAEFR
Description: (§1) Reacti-BindTM maleic anhydride-activated polystyrene plate (Pierce, Ill., USA) was coated with 50 μl of HC peptide (200 μM in distilled water) by chemical coupling for 3 h at room temperature (RT) and washed three times with phosphate buffered saline (PBS) containing 0.05% tween 20 (PBST). The plate was blocked with blocking buffer (0.5% gelatin in PBS) for 1 h at RT. After discarding blocking buffer, biotinylated BACE1 substrates (200 μM) in blocking buffer was applied on the plate and incubated for 2.5 h at RT. Each well was washed three times with PBST. The bound biotinylated BACE1 substrates were detected by incubation with streptavidin-horseradish peroxidase (Str-HRP, 125 mU/ml in blocking buffer) for 2 h at RT. Color reaction was carried out with 50 μl of 3,3′,5,5′-Tetramethylbenzidine Liquid Substrate (Sigma-Aldrich, Mo., USA). After stopping the reaction by addition of an equal volume of 1 N HCl, absorbance at 450 nm was read in an automated ELISA reader (EL 312e, Bio-Tek Instruments, VT, USA). All assays were carried out in duplicate.

[5] = target: T5, Substrate M (decamer containing the β-secretase cleavage site of Swedish mutant APP), non-labelled; assay: cell-based or functional assay
T5 peptide: SEVNLDAEFR

[6] = target: T6, Sub-ST6Gal1 (non-labelled); assay: cell-based or functional assay
T6 peptide: DYEALTLQAKEFQMPKSQE

[7] = target: T1, biotin-labeled Substrate M; assay: plate assay: HC peptide chemically coupled to plate, bio-Sub M, Str-HRP, A450 (Table 2)
Description: as §1

[8] = target: T4, biotin-labeled Substrate W; assay: plate assay: complementary peptide immobilised, biotinylated substrate, streptavidin-HRP
[9] = target: T1, biotin-labeled Substrate M; assay: plate assay: HC peptide chemically coupled to plate, bio-Sub M, Str-HRP, A450 (Table 1)
Description: as §1

T2 sequence (P56817 22-457 limits assumed): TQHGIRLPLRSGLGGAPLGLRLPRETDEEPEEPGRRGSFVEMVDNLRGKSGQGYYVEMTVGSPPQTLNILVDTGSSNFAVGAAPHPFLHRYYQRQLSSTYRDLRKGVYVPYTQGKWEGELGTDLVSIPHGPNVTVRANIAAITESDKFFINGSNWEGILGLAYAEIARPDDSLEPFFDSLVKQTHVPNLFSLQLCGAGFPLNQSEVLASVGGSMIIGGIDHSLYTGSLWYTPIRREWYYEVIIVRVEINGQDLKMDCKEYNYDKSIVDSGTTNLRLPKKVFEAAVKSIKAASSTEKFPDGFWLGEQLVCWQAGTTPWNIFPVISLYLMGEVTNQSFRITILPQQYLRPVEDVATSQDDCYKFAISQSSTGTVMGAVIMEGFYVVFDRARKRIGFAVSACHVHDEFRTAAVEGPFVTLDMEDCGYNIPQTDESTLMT

B1: c-Sub M (SEFCIQIHFR) (peptide)
peptide: SEFCIQIHFR-NH2
notes: Hydropathic complementary peptide designed from the antisense strand of Sub M, read 5'->3'; also called HC peptide c-Sub M
binding result [1]: binds
binding result [2]: no binding
percent inhibition of f-Sub M cleavage by rhBACE1 (FRET), peptide 100 fold over substrate [3]: ~50%
percent inhibition of f-Sub M cleavage by rhBACE1 (peptide 1 mM, f-Sub M 10 µM) [3]: 45%
fold binding to Sub W relative to c-Sub W [4]: 4 fold

B2: c-Sub M ΔN1C1 (EFCIQIHF) (peptide)
peptide: EFCIQIHF-NH2
notes: also called one amino acid deletion from N-terminal of c-Sub M ΔC1
percent inhibition of substrate cleavage by rhBACE1 (HPLC), inhibitor/substrate ratio 20 [5]: 100%
percent inhibition of substrate cleavage by rhBACE1 (HPLC), inhibitor/substrate ratio up to 10 [5]: 60%
IC50 of inhibition of f-Sub M (10 µM) cleavage by rhBACE1 (FRET) [3]: 15 µM
percent inhibition of substrate cleavage by rhBACE1 (HPLC), inhibitor/substrate ratio 20 [6]: 40%
percent inhibition of substrate cleavage by rhBACE1 (HPLC), inhibitor/substrate ratio up to 10 [6]: ~10%
fold binding to Sub W relative to c-Sub W [4]: 2.5 fold

SEFCI-NH2 [c-Sub M ΔC5 (SEFCI)]
percent inhibition of f-Sub M cleavage by rhBACE1 (peptide 1 mM, f-Sub M 10 µM) [3]: > 90%

SEFCIQI-NH2 [c-Sub M ΔC3 (SEFCIQI)]
percent inhibition of f-Sub M cleavage by rhBACE1 (peptide 1 mM, f-Sub M 10 µM) [3]: > 90%

SEFCIQIH-NH2 [c-Sub M ΔC2 (SEFCIQIH)]
percent inhibition of f-Sub M cleavage by rhBACE1 (peptide 1 mM, f-Sub M 10 µM) [3]: 44%

SEFCIQIHF-NH2 (also called c-SubM CΔ1) [c-Sub M ΔC1 (SEFCIQIHF)]
percent inhibition of f-Sub M cleavage by rhBACE1 (peptide 1 mM, f-Sub M 10 µM) [3]: 90%
binding result [7]: binds

FCIQIHF-NH2 [c-Sub M ΔN2C1 (FCIQIHF)]
percent of substrate cleavage by β-secretase blocked (HPLC), 25-fold inhibitor [5]: ~60%
percent of substrate cleavage by β-secretase blocked (HPLC), 25-fold inhibitor [6]: 25%
binding result [4]: binds

CIQIHF-NH2 (also called c-Sub MΔC1N3; c-Sub ΔN3C1) [c-Sub M ΔN3C1 (CIQIHF)]
inhibitory activity relative to c-Sub M ΔN1C1 (FRET, f-Sub M 10 µM) [3]: ~0.1 fold
binding result [4]: binds

SEFCIQ-NH2 [c-Sub M ΔC4 (SEFCIQ)]
percent inhibition of f-Sub M cleavage by rhBACE1 (peptide 1 mM, f-Sub M 10 µM) [3]: > 90%

B3: c-Sub W (SEFCIHLHFR) (peptide)
peptide: SEFCIHLHFR-NH2
notes: Hydropathic complementary peptide designed from the antisense strand of Sub W, read 5'->3'
binding result [8]: binds
binding result [9]: binds

B4: Sub W-c (RLHFYLRLKA) (peptide)
peptide: RLHFYLRLKA-NH2
notes: Complementary peptide of Sub W read 3'->5'
binding result [9]: binds
